# Measured values as given in the supplement of paper PMC10126150.
# ± gives the standard deviation of the averaged measurements.
# Test system: ATP
# Assay: switch fluorescence ratio, 500 uM ATP over buffer (Cy3 cluster intensity, sum of 5 cycles each) (fold (ratio)); higher = stronger signal-on switching upon ATP binding; sequences stand for … in TCGTCGGCAGCGTCAGATGTGTATAAGAGACAGTTTTTTTTTTTTTTTTTTTTTTTTT…TC
# Conditions: aptamer strand: ATP DNA aptamer (quencher-CACCTGGGGGAGTATTGCGGAGGAAGG + anchor), 100 nM annealed; ATP concentration: 500 uM
# Procedure, shortened: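 Five buffer/ATP imaging cycles were run on Cy3-labelled switching-strand clusters on a modified Illumina MiSeq flow-cell, with NaOH stripping and re-annealing between cycles. In each cycle, clusters annealed to 100 nM quencher-labelled ATP aptamer were imaged in selection buffer, then after 15 min with 500 uM ATP at 22 °C. Per cluster, the fluorescence ratio is summed target-cycle over summed buffer-cycle Cy3 intensity, averaged per switch-domain sequence. Only clusters within 100-1000 RFU were kept.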
# 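Also: ATP exposure 15 min at 22 °C before imaging.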
row,Sequence,switch fluorescence ratio
1,CGTCGGGTGG,0.9882 ± 0.0028
2,CGTCGTACGC,0.981 ± 0.13
3,CGTCGTTCTC,1.02 ± 0.07
4,CGTCTAAGTC,1.01 ± 0.046
5,CGTCTAAGTG,0.99 ± 0.019
6,CGTCTACATG,1.03 ± 0.027
7,CGTCTATGGG,1 ± 0.014
8,CGTCTGCGCG,0.972 ± 0.081
9,CGTCTGGCGG,1.01 ± 0.021
10,CGTCTTAGGG,0.966 ± 0.016
11,CGTCTTTAGA,0.987 ± 0.01
12,CGTGAAAGG,0.9546 ± 0.0042
13,CGTGAATTTG,0.987 ± 0.026
14,CGTGACCAGG,1.14 ± 0.029
15,CGTGACGGGG,0.978 ± 0.043
16,CGTGAGTTGG,0.992 ± 0.014
17,CGTGATCAGA,0.996 ± 0.039
18,CGTGATGAGG,0.989 ± 0.028
19,CGTGATTGCT,1.03 ± 0.074
20,CGTGATTTTT,1 ± 0.041
21,CGTGCAGCGG,1 ± 0.014
22,CGTGCAGGGG,1.057 ± 0.0013
23,CGTGCGGCGT,0.9829 ± 0.0026
24,CGTGCTGGGA,1.03 ± 0.033
25,CGTGCTTGTA,1.01 ± 0.025

row,Sequence,switch fluorescence ratio
1,CGTGCTTTCT,0.999 ± 0.029
2,CGTGGAGTGG,0.996 ± 0.029
3,CGTGGATGCG,1.025 ± 0.0038
4,CGTGGATGGT,0.9933 ± 0.0032
5,CGTGGATTTT,0.972 ± 0.034
6,CGTGGCCGTT,0.978 ± 0.095
7,CGTGGCCTGG,0.994 ± 0.024
8,CGTGGCGCGG,0.9942 ± 0.0096
9,CGTGGCTAAG,0.971 ± 0.046
10,CGTGGGAATA,0.9992 ± 0.0082
11,CGTGGGAGAA,1.09 ± 0.084
12,CGTGGGAGGG,0.99 ± 0.011
13,CGTGGGGACT,0.991 ± 0.027
14,CGTGGGGCGA,1.03 ± 0.025
15,CGTGGGGGTA,0.996 ± 0.025
16,CGTGGGTAGA,1.06 ± 0.09
17,CGTGGTGGGG,0.992 ± 0.015
18,CGTGGTTATG,0.975 ± 0.06
19,CGTGTAAATA,0.995 ± 0.015
20,CGTGTAAGAT,1.03 ± 0.047
21,CGTGTAATTC,1.03 ± 0.1
22,CGTGTACCGG,1.01 ± 0.0092
23,CGTGTAGGGG,1.03 ± 0.017
24,CGTGTAGTCC,1.1 ± 0.086
25,CGTGTGAGAG,0.986 ± 0.021

row,Sequence,switch fluorescence ratio
1,CGTGTGGTTC,1.02 ± 0.036
2,CGTGTGTACC,1.007 ± 0.0049
3,CGTGTGTGTA,1.07 ± 0.05
4,CGTGTGTTGC,1 ± 0.024
5,CGTGTTTGCG,0.985 ± 0.031
6,CGTGTTTTTG,0.986 ± 0.02
7,CGTTAAAGAT,1.03 ± 0.023
8,CGTTAAGGCT,0.973 ± 0.015
9,CGTTAAGTTC,0.993 ± 0.029
10,CGTTAATTCG,1 ± 0.028
11,CGTTACAGGT,1.04 ± 0.028
12,CGTTACTTAG,1.02 ± 0.011
13,CGTTACTTTT,1.02 ± 0.053
14,CGTTAGTTTT,0.9924 ± 0.0021
15,CGTTATAAAG,0.9811 ± 0.0012
16,CGTTATACTG,1.07 ± 0.027
17,CGTTATAGTC,1.02 ± 0.047
18,CGTTATCGTC,0.99 ± 0.0099
19,CGTTCATTAG,1.003 ± 0.0076
20,CGTTCTAGTT,1.001 ± 0.01
21,CGTTCTATGT,1.01 ± 0.02
22,CGTTCTCCCC,1.03 ± 0.068
23,CGTTCTGGAG,1.2 ± 0.038
24,CGTTGAAAGT,0.991 ± 0.015
25,CGTTGATAAG,0.997 ± 0.022

row,Sequence,switch fluorescence ratio
1,CGTTGATCAG,0.976 ± 0.024
2,CGTTGATGGT,0.992 ± 0.02
3,CGTTGCATTG,1.03 ± 0.017
4,CGTTGCTGAT,0.972 ± 0.035
5,CGTTGGAATA,1.01 ± 0.042
6,CGTTGGAATG,0.981 ± 0.015
7,CGTTGGCCGT,1.03 ± 0.085
8,CGTTGGGACG,1.0042 ± 0.00087
9,CGTTGGGAGG,0.979 ± 0.016
10,CGTTGGGGCA,1 ± 0.077
11,CGTTGGGGCG,0.931 ± 0.035
12,CGTTGGGGTG,1.03 ± 0.063
13,CGTTGGGTTC,0.969 ± 0.013
14,CGTTGTGGCA,1 ± 0.028
15,CGTTGTGTAG,1.02 ± 0.013
16,CGTTGTTCGT,1 ± 0.0015
17,CGTTGTTGTA,1.01 ± 0.02
18,CGTTGTTTTG,0.9848 ± 0.0091
19,CGTTTAATGG,0.984 ± 0.0086
20,CGTTTACGCC,1 ± 0.046
21,CGTTTAGTGG,0.9781 ± 0.0089
22,CGTTTATTG,0.9967 ± 0.0085
23,CGTTTCGCAG,1.03 ± 0.068
24,CGTTTCTAAG,0.967 ± 0.03
25,CGTTTCTTTT,0.997 ± 0.02

row,Sequence,switch fluorescence ratio
1,CGTTTGGTAG,0.964 ± 0.019
2,CGTTTGTACT,1.022 ± 0.0013
3,CGTTTGTGCA,0.98971 ± 6.6e-05
4,CGTTTGTGTG,1.01 ± 0.011
5,CGTTTTCCAG,0.985 ± 0.03
6,CGTTTTGCGG,1.04 ± 0.052
7,CGTTTTGGTT,0.976 ± 0.021
8,CGTTTTTTGT,0.9843 ± 0.002
9,CTAAAATGCT,1.042 ± 0.0088
10,CTAAACGTCA,1.1 ± 0.051
11,CTAAAGTGGG,0.973 ± 0.015
12,CTAAATTTTA,0.989 ± 0.019
13,CTAACAGCGA,1.297 ± 0.0027
14,CTAACCATCT,1.028 ± 0.0038
15,CTAACGAGGG,0.9731 ± 0.0043
16,CTAACGGTTT,0.976 ± 0.028
17,CTAACTAAGG,1.015 ± 0.0095
18,CTAAGATAGG,1.01 ± 0.029
19,CTAAGGAGGG,0.989 ± 0.021
20,CTAAGTCGAG,0.966 ± 0.037
21,CTAAGTTCTT,0.987 ± 0.008
22,CTAATAATCG,1 ± 0.015
23,CTAATATCAC,1.02 ± 0.012
24,CTAATATTAG,1 ± 0.086
25,CTAATGGAAA,0.998 ± 0.026

row,Sequence,switch fluorescence ratio
1,CTAATGGACA,1.01 ± 0.025
2,CTAATTTAGT,1.01 ± 0.014
3,CTAATTTTTC,0.9878 ± 0.0026
4,CTACAAAAAA,1.02 ± 0.034
5,CTACATCTTA,1.02 ± 0.018
6,CTACGGGGCT,1.01 ± 0.02
7,CTACGTTGGA,1.03 ± 0.02
8,CTACTAATTA,1.026 ± 0.0031
9,CTACTGCCGT,1.02 ± 0.034
10,CTACTTTTTT,1.01 ± 0.023
11,CTAGCACGGA,0.9713 ± 0.0093
12,CTAGCATGGG,0.999 ± 0.029
13,CTAGCTGACC,1.11 ± 0.046
14,CTAGCTGCGA,1.08 ± 0.055
15,CTAGCTGTAG,1.04 ± 0.03
16,CTAGGAGGGC,1 ± 0.027
17,CTAGGATCTA,0.996 ± 0.062
18,CTAGGCCGGG,0.98 ± 0.025
19,CTAGGCTAGG,0.9885 ± 0.0012
20,CTAGGGAAAG,0.989 ± 0.057
21,CTAGGGCATA,1.05 ± 0.047
22,CTAGGGCGGA,1.01 ± 0.021
23,CTAGGGGAGA,1.018 ± 0.0038
24,CTAGGGGGGA,0.997 ± 0.0052
25,CTAGGTAAAC,1.06 ± 0.012

row,Sequence,switch fluorescence ratio
1,CTAGGTACTT,1.03 ± 0.037
2,CTAGGTGATC,1.07 ± 0.044
3,CTAGGTGCAA,1.19 ± 0.091
4,CTAGGTTCTG,1.015 ± 0.0043
5,CTAGTAAAGT,0.977 ± 0.037
6,CTAGTATGGA,1.02 ± 0.031
7,CTAGTTAAAC,1.01 ± 0.02
8,CTAGTTGATG,0.991 ± 0.022
9,CTAGTTGGAT,0.9908 ± 0.0053
10,CTAGTTTGAG,1.01 ± 0.01
11,CTATACGGCA,1.09 ± 0.011
12,CTATACTTGG,0.98716 ± 0.00098
13,CTATATTTTT,1.01 ± 0.025
14,CTATCATAGT,0.98 ± 0.032
15,CTATCATCAT,0.9978 ± 0.0084
16,CTATCTATTG,0.9923 ± 0.0014
17,CTATGAGTTT,0.993 ± 0.013
18,CTATGGAGTG,0.9928 ± 0.0039
19,CTATGTTGGT,0.9562 ± 0.0062
20,CTATGTTTTG,0.979 ± 0.017
21,CTATTACTTA,1.02 ± 0.032
22,CTATTAGATG,0.994 ± 0.03
23,CTATTAGGGT,0.999 ± 0.052
24,CTATTGAATC,1.022 ± 0.0015
25,CTATTGATGG,0.996 ± 0.015

row,Sequence,switch fluorescence ratio
1,CTATTTAGTC,0.9496 ± 0.0052
2,CTCAAATATG,1.002 ± 0.0051
3,CTCACCCGGA,1.18 ± 0.012
4,CTCACGACGT,1.07 ± 0.019
5,CTCACTATGA,0.99239 ± 0.0009
6,CTCAGAAACG,1.03 ± 0.04
7,CTCAGATGAT,0.988 ± 0.013
8,CTCAGGCTTG,0.997 ± 0.052
9,CTCAGGTGTT,1.73 ± 1
10,CTCATAGCGC,1.02 ± 0.035
11,CTCATATTCA,1.02 ± 0.027
12,CTCATTAAGG,1.01 ± 0.016
13,CTCCAAGTGA,1.315 ± 0.0062
14,CTCCAATAGT,1.79 ± 0.044
15,CTCCGAATTT,2.17 ± 0.35
16,CTCCGAGGGG,1.31 ± 0.21
17,CTCCGGGCGA,4.47 ± 1
18,CTCCGGGGTT,1.85 ± 0.35
19,CTCCTAAATG,1.19 ± 0.015
20,CTCCTAGTCA,1.05 ± 0.061
21,CTCCTCGTGC,3.49 ± 0.47
22,CTCCTGGACT,1.069 ± 0.0061
23,CTCGAAGTTG,0.9692 ± 0.0025
24,CTCGCCAGGG,1.41 ± 0.032
25,CTCGGACGGG,0.995 ± 0.046
